This passage reports Kd results from PMC3811445.

The target in the experiment is E. coli EF-G (Δ529SNP531) (E. coli) (UniProt P0A6M8). The experiment is described as follows: ITC; performed as described previously (ref 11); conditions not given here.

FusB (natural protein) came in with a Kd of 5.8 µM.
